Experimental findings from paper PMC3823998, “Structural and Functional Characterization of the Redβ Recombinase from Bacteriophage λ” (PLoS ONE, 2013) are described below.

In this data set the target is T1, Redβ V79A (Bacteriophage λ (Enterobacteria phage λ), UniProt P03698 1-261, V79A).
T1 sequence: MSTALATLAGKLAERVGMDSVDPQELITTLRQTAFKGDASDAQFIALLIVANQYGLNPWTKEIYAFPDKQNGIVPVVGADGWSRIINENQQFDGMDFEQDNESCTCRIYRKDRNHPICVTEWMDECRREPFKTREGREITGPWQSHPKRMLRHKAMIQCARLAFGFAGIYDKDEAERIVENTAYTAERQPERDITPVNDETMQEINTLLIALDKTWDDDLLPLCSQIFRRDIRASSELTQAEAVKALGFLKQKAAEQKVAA
The experiment in a line: EMSA; glutaraldehyde-fixed; ssDNA EMSA: 10 nM DNA, 50 mM potassium phosphate pH 6.0, 5 mM EDTA, 5% glycerol, 0.1 mg/ml BSA, 37°C, 40 min, then 0.1% glutaraldehyde; second-strand EMSA: 5 nM each strand, 20 mM Tris-HCl pH 7.5, 5 mM MgCl2, 1 mM DTT, 0.1 mg/ml BSA, 37°C. The following applies: protein: recombinant; tags: His6 removed; N-terminal GSH left; label: 5' Cy3.

In the case of TGCGGATGGCTTAGAGCTTAATTGCTGAATCTGGTGCTGTAGCTCAACAT (ssDNA) [50-minus ssDNA], the binding signal is 21 % of WT binding at 3 µM protein.
